Results from US20240400677A1 (ELECTRA THERAPEUTICS, published 2024).

T1: Cynomolgus Monkey SIRPγ (plate-coated extracellular domain)
T1 construct: also called Cyno SIRPγ
T1 extracellular domain: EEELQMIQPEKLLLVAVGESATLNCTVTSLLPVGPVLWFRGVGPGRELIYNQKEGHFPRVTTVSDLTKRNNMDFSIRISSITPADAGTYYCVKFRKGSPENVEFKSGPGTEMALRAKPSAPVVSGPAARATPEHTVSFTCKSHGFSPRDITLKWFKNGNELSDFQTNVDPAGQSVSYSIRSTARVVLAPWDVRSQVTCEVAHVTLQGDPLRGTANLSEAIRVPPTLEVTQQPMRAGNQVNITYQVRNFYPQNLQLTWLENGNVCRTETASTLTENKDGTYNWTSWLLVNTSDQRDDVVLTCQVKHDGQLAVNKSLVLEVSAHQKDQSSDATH

T2: cynomolgus monkey SIRPα on CHO cells (cynomolgus monkey, UniProt A0A2K5VYQ9 31-507)
T2 construct: whole, on cells; also called Cyno SIRPα CHO
T2 sequence: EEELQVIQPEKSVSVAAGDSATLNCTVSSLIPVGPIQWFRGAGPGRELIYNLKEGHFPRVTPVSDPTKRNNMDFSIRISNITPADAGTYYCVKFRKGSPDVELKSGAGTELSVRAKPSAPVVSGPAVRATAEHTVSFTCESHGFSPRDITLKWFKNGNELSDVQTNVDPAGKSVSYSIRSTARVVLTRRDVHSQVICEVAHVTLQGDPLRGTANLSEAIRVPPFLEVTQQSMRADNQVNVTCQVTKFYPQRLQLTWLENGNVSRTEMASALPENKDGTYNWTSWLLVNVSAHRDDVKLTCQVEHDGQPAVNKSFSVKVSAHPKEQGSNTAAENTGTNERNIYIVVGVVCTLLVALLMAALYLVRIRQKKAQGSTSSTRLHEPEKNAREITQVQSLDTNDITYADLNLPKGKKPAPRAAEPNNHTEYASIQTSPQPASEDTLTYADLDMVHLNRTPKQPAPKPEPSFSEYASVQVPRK

T3: cynomolgus monkey SIRPγ-His monomer protein (cynomolgus monkey, UniProt Q9P1W8 29-359 (human entry), limits assumed)
T3 construct: also called Cyno SIRPγ; Cyno SIRPγ-His
T3 chain: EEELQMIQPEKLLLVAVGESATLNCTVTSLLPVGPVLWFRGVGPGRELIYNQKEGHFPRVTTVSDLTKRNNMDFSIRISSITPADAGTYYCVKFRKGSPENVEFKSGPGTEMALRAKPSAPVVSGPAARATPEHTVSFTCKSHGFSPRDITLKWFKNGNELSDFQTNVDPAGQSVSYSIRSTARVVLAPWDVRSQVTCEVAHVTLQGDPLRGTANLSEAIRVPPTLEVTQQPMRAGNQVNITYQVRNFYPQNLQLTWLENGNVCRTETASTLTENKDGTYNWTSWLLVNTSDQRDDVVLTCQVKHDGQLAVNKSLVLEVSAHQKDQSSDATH

T4: cynomolgus monkey SIRPγ on CHO cells (cynomolgus monkey, UniProt Q9P1W8 29-386 (human entry))
T4 construct: also called Cyno SIRPγ CHO
T4 chain: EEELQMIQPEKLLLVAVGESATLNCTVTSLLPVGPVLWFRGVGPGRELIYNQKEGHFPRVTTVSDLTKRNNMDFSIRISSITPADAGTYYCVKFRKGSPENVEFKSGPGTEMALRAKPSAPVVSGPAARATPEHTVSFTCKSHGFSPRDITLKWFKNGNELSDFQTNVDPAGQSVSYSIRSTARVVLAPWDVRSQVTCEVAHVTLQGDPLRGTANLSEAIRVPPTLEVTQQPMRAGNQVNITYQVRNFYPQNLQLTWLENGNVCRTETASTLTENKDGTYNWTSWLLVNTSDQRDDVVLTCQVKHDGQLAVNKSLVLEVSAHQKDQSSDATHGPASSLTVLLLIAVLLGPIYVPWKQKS


Assays:
[1] = molecular target: T5, extracellular binding domain of human SIRPγ (plate-coated) (human, UniProt Q9P1W8 29-360); assay: ELISA, coated SIRP ECD (2 µg/mL), anti-human IgG, luminescence
T5 construct: also called hSIRPγ
T5 sequence (Q9P1W8 29-360 limits assumed): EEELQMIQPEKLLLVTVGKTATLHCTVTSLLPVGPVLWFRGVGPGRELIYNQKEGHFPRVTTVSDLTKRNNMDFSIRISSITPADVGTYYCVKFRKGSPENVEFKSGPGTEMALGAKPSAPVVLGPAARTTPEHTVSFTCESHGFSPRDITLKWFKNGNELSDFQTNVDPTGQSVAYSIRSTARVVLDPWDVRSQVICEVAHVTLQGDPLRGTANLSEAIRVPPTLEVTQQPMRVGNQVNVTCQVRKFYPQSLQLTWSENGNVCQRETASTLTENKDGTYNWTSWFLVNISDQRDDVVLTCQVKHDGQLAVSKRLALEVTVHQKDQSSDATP
Protocol: (§1) Selected hybridoma supernatants of Example 1 were tested for binding to human SIRPγ, cynomolgus monkey SIRPγ, human SIRPα V1, cynomolgus monkey SIRPα, human SIRPβ1, and cynomolgus monkey SIRPβ1 by enzyme-linked immunosorbent assay (ELISA). Briefly, 2 μg/mL of the extracellular domain of SIRP protein was coated onto high protein-binding plates and blocked. Undiluted supernatants were added to coated plates. The antibodies were detected by an anti-rat antibody and a chemiluminescent substrate. […] The data depict the relative luminescence units read by a plate-reader capable of detecting chemiluminescence.
(§2) FIGS. 2A-2G show binding curves of SIRPγ antibodies and human Fc isotype controls to human SIRPγ, cynomolgus monkey SIRPγ, human SIRPα V1, human SIRPα V2, and human SIRPβ1 by ELISA. […] Isotype control 2 was an unrelated human IgG1 antibody with irrelevant CDRs with no modifications in the Fc region. DNA was transiently transfected into Expi293F cells for 5 days. Antibodies were purified by Protein A from cell supernatants and analyzed in a titration via ELISA as previously described in FIG. 1 using an anti-human IgG antibody as the detection antibody.

[2] = molecular target: T1, Cynomolgus Monkey SIRPγ (plate-coated …); assay: as above
Protocol: as §1, §2

[3] = molecular target: T2, cynomolgus monkey SIRPα on CHO cells; assay: flow cytometry, CHO transfectants, anti-human IgG
Protocol: (§3) Selected antibodies were tested for binding to stably transfected human SIRPγ, SIRPαV1, or SIRPβ1 (co-transfected with DAP12) Chinese hamster ovary (CHO) cells via flow cytometry. A titration of select antibodies was added to the cells and detected using a fluorescently labelled secondary anti-rat IgG antibody or anti-human IgG antibody. Graphs depict the median fluorescence intensity (MFI) at each concentration. FIGS. 5A and 5G show the binding curves of select antibodies to human SIRPγ, cynomolgus monkey SIRPγ, human SIRPα, cynomolgus monkey SIRPα, human SIRPβ1, or cynomolgus monkey SIRPβl-expressing CHO cells detected using an anti-rat IgG antibody. FIGS. 5B-5F and 5H-5L show the binding curves of select antibodies to human SIRPγ, cynomolgus monkey SIRPγ, human SIRPα, cynomolgus monkey SIRPα, human SIRPβ1, or cynomolgus monkey SIRPβ1-expressing CHO cells detected using an anti-human IgG antibody. […] For select antibodies, each myc-tagged SIRPγ scFv antibody as crude PPE was incubated with each of the SIRP-expressing cell lines stated above along with the parental CHO-K1 cell line. […] Fold change value <2.0 is considered a non-binder.

[4] = molecular target: T6, human SIRPβ1 on CHO cells (co-transfected with DAP12) (human, UniProt O00241 30-398); assay: flow cytometry, CHO transfectants, anti-human IgG
T6 construct: whole, on cells; co-transfected with DAP12; also called Human SIRPβ1 CHO
T6 sequence (O00241 30-398): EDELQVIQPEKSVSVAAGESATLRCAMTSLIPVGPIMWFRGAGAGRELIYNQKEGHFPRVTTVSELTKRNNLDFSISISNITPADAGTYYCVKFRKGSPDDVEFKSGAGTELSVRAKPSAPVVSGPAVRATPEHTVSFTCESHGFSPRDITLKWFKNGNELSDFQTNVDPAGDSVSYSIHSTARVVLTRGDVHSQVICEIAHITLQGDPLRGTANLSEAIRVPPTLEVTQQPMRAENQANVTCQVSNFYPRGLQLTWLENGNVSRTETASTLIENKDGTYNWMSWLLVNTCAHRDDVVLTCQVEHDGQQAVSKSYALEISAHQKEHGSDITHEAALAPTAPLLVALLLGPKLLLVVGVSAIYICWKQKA
Protocol: as §3

[5] = molecular target: T3, cynomolgus monkey SIRPγ-His monomer …; assay: BLI Octet, captured scFv PPE, cyno SIRP
Protocol: Unique binders were further tested for binding to human SIRPαV1, human SIRPαV2, and human SIRPβ1. Briefly, biotinylated anti-V5 was immobilized onto streptavidin biosensors. Each V5-tagged SIRPγ scFv antibody as crude PPE was captured by the anti-V5 antibody. SIRP-His monomer protein at 500 nM was exposed to the biosensor for binding to SIRP scFv. The biosensors were then exposed to wash buffer to measure off-rate kinetics. The resulting association and dissociation kinetics (kdis) was analyzed. […] Similarly, cross-reactivity to cynomolgus monkey SIRPγ, cynomolgus monkey SIRPα, and cynomolgus monkey SIRPβ1 were tested.

[6] = molecular target: T4, cynomolgus monkey SIRPγ on CHO cells; assay: flow cytometry, myc-scFv PPE
Protocol: as §3

[7] = molecular target: T7, human SIRPγ on stably transfected CHO cells (human, UniProt Q9P1W8 29-387); assay: flow cytometry, myc-scFv PPE
T7 construct: also called Human SIRPγ CHO
T7 sequence (Q9P1W8 29-387 limits assumed): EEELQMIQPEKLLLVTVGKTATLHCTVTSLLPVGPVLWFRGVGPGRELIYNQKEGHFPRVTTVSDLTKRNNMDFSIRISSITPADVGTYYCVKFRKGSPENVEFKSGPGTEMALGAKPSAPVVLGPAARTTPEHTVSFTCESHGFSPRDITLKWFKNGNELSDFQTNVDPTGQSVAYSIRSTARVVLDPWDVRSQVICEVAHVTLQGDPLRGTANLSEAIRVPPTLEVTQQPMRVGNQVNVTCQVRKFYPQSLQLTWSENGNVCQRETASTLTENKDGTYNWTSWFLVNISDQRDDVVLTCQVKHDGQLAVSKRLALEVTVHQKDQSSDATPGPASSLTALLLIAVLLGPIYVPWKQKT
Protocol: as §3

[8] = molecular target: T8, human SIRPγ-His monomer protein (human, UniProt Q9P1W8 29-360); assay: BLI Octet, V5-scFv PPE captured, SIRP-His 500 nM
T8 construct: also called hSIRPγ
T8 sequence (Q9P1W8 29-360 limits assumed): as the sequence (Q9P1W8 29-360 limits assumed) above

[9] = molecular target: T6, human SIRPβ1 on CHO cells …; assay: flow cytometry

Binder | EC50 (read off the curve) [1] | EC50 (read off the curve) [2] | binding result [3] | binding result [4] | binding result [5] | MFI fold change over parental CHO [6] | MFI fold change over parental CHO [7] | kdis [8] | binding result [9]
Antibody 63 (antibody, V domains shown) VH: QVQLVQSGAEVKKPGASVKVSCKASGYTFTGYYMHWVRQAPGQGLEWMGIINPSGGSTNYAQKFQGRVTMTRDTSTSTVYMELSSLRSEDTAVYYCARGPIGYGMDVWGQGTLVTVSS VL: DIQMTQSPSSLSASVGDRVTITCRASQGIGNDLGWYQQKPGKAPKLLIYAASNLETGVPSRFSGSGSGTDFTLTISSLQPEDFATYYCLQHHSYPFTFGQGTKLEIK | ~0.8 µg/mL | ~1 µg/mL | no binding (tested: about 20 µg/mL) | no binding (tested: about 20 µg/mL) |  |  |  |  | 
Antibody 68 (antibody, V domains shown) VH: QVQLVQSGAEVKKPGASVKVSCKASGYTFTSYYMYWVRQAPGQGLEWMGWINPNSGNTGYAQKFQGRVTMTRDTSTSTVYMELSSLRSEDTAVYYCAKDRRRGVGLAAAGTSAFDIWGQGTMVTVSS VL: DIQMTQSPSSLSASVGDRVTITCRASQSISNWLAWYQQKPGKAPKLLIYAASSLQSGVPSRFSGSGSGTDFTLTISSLQPEDFATYYCQQSYSTPYTFGQGTKLEIK | ~0.5 µg/mL | ~1 µg/mL | no binding (tested: about 20 µg/mL) | no binding (tested: about 20 µg/mL) |  |  |  |  | 
Antibody 72 (antibody, V domains shown) VH: QVQLVQSGAEVKKPGASVKVSCKASGYTFTDNYLHWVRQAPGQGLEWMGIIETSGGSTDYAQKFQGRVTMTRDTSTSTVYMELSSLRSEDTAVYYCARSFGGYSYDDAFDIWGQGTTVTVSS VL: DIQMTQSPSSLSASVGDRVTITCQASQGISNYLNWYQQKPGKAPKLLIYAASSLQSGVPSRFSGSGSGTDFTLTISSLQPEDFATYYCQQSYSSPYTFGQGTKVEIK | ~0.2 µg/mL | ~0.3 µg/mL | no binding (tested: about 20 µg/mL) | no binding (tested: about 20 µg/mL) |  |  |  |  | 
Antibody 12 (scFv, V domains shown, scFv in crude PPE, V5/myc-tagged) VH: QVQLVQSGAEVKKPGASVKVSCKASGGTFGSYGINWVRQAPGQGLEWMGWISAYNGNTNYAQKLQGRVTMTRDTSTSTVYMELSSLRSEDTAVYYCARDGIDYGGNSGYDYWGQGTLVTVSS VL: DIQMTQSPSSLSASVGDRVTITCRASQNIRNYLNWYQQKPGKAPKLLIYAASSLQGGVPSRFSGSGSGTDFTLTISSLQPEDFATYYCQQSYNGPYTFGQGTKVEIK |  |  |  |  | binds | 5.94 fold | 10.7 fold | 0.001 to 0.01 s⁻¹ | no binding (tested: fold change <2.0)
Antibody 46 (scFv, V domains shown, scFv in crude PPE, V5/myc-tagged) VH: QVQLVQSGAEVKKPGASVKVSCKASGYTFSSYAISWVRQAPGQGLEWMGWMDPNSGNTGYAQKFQGRVTMTRDTSTSTVYMELSSLRSEDTAVYYCARESSYYYDSSGYYPGWYFDLWGRGTLVTVSS VL: DIQMTQSPSSLSASVGDRVTITCQASQDISNYLNWYQQKPGKAPKLLIYAASTLQTGVPSRFSGSGSGTDFTLTISSLQPEDFATYYCQQSYSTPWTFGPGTKVDIK |  |  |  |  | binds | 16 fold | 13.1 fold | > 0.01 s⁻¹ | no binding (tested: fold change <2.0)
Antibody 70 (antibody, V domains shown) VH: QVQLVQSGAEVKKPGASVKVSCKASGYTFSNYYMHWVRQAPGQGLEWMGWMNPNSGNTGYAQKFQGRVTMTRDTSTSTVYMELSSLRSEDTAVYYCARASMYSSSGFDYWGQGTLVTVSS VL: DIVMTQSPLSLPVTPGEPASISCRSSQSLLHSNGYNYLDWYLQKPGQSPQLLIYLASTRAPGVPDRFSGSGSGTDFTLKISRVEAEDVGVYYCMQGSHWPPSFGQGTRLEIK | ~0.03 µg/mL | ~0.05 µg/mL | no binding (tested: about 20 µg/mL) | no binding (tested: about 20 µg/mL) |  |  |  |  | 
Antibody 59 (antibody, V domains shown) VH: QVQLVQSGAEVKKPGASVKVSCKASGYTFTSYDINWVRQAPGQGLEWMGWMNPNSGNTGYAQKFQGRVTMTRDTSTSTVYMELSSLRSEDTAVYYCARESYAYCSSTSCYDAFDIWGQGTMVTVSS VL: not shown | ~0.08 µg/mL | ~0.3 µg/mL | no binding (tested: about 20 µg/mL) | no binding (tested: about 20 µg/mL) |  |  |  |  | 
Antibody 11 (scFv, V domains shown, scFv in crude PPE, V5/myc-tagged) VH: QVQLVQSGAEVKKPGASVKVSCKASGYTFTSYDINWVRQAPGQGLEWMGWMNPNSGNTGYAQKFQGRVTMTRDTSTSTVYMELSSLRSEDTAVYYCAKGAVAGTYYYYGMDVWGQGTTVTVSS VL: DIQMTQSPSSLSASVGDRVTITCRASQTINNYLNWYQQKPGKAPKLLIYDASNLETGVPSRFSGSGSGTDFTLTISSLQPEDFATYYCQQANSFPLTFGQGTKVEIK |  |  |  |  | binds | 6.18 fold | 3.98 fold | 0.001 to 0.01 s⁻¹ | no binding (tested: fold change <2.0)
